Data from patent publication US7005419 (US Dept. of Health and Human Services, dated 2006).

How the values were obtained:
[1] = molecular target: T1, PCNA (human, UniProt P12004 1-261); test: co-immunoprecipitation with anti-PCNA from transfected HCT116 cells, anti-HA Western blot
T1 construct: Endogenous cellular protein
Procedure: (§1) The immunoprecipitates were then analyzed by Western blot with anti-HA antibody.

[2] = molecular target: T2, p21^Cip1/Wafl (human, UniProt P38936 1-164, limits assumed); test: co-immunoprecipitation with anti-p21 from transfected HCT116 cells, anti-HA Western blot
T2 construct: Both are written as one molecule; also called p21^wafl
Procedure: as §1

[3] = molecular target: T3, Cdc2 (human, UniProt P06493 1-297); test: co-immunoprecipitation with anti-Cdc2 from transfected HCT116 cells, anti-HA Western blot
T3 construct: Endogenous cellular protein; also called cellular Cdc2; Cdc2 polypeptide
Procedure: as §1

[4] = molecular target: Cdk2 (human, UniProt P24941 1-298); test: GST pull-down from RKO cell lysate, anti-Cdk2 immunoblot
[5] = molecular target: T4, Cyclin B1 (human, UniProt P14635 1-433); test: GST pull-down from RKO cell lysate, anti-cyclin B1 immunoblot
T4 construct: Endogenous cellular protein
T4 sequence (P14635 whole entry): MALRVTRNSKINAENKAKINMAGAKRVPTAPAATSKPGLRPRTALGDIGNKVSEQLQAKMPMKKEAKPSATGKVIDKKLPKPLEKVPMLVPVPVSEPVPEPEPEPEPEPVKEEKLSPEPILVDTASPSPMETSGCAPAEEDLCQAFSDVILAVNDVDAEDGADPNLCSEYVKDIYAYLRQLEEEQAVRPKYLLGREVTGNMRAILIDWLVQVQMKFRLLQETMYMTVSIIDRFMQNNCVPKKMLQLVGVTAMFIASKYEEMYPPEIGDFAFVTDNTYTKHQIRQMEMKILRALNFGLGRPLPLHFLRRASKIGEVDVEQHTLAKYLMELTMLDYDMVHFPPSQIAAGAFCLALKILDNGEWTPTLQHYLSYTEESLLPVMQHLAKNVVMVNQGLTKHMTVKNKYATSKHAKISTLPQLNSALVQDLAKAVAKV

T2 sequence (P38936 whole entry): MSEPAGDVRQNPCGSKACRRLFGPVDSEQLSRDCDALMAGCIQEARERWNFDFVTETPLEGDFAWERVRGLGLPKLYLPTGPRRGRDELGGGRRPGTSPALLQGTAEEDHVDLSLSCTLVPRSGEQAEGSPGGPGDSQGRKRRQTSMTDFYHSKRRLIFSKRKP
T3 sequence (P06493 whole entry): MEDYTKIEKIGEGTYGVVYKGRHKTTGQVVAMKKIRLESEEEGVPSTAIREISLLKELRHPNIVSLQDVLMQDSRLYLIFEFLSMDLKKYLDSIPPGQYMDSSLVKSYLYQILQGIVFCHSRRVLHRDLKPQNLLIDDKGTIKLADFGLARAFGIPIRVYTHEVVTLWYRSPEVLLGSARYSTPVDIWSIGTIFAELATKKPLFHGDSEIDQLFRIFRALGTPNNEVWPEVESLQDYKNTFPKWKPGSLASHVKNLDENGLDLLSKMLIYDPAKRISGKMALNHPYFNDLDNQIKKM
T1 sequence (P12004 whole entry): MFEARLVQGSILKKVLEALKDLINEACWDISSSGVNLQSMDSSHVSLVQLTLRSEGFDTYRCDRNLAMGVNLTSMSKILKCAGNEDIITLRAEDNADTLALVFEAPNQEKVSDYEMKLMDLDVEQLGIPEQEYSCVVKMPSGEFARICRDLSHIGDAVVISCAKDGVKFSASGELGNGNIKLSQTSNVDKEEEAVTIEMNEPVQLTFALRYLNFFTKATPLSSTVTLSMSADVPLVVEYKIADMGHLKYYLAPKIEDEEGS

| binding result [1] | binding result [2] | binding result [3] | binding result [4] | binding result [5] | Binder |
| --- | --- | --- | --- | --- | --- |
| no binding | no binding | no binding |  |  | GADD45 deletion mutant del50-76 (HA-tagged) (other, not shown: small tags and cut ends, The junction is not described) MTLEEFSAGEQKTERMDKVGDALEEVLSKALSQRTITVGVYEAAKLLNVLIQAFCCENDINILRVSNPGRLAELLLLETDAGPAASEGAEQPPDLHCVLVTNPHSSQWKDPALSQLICFCRESRYMDQWVPVINLPER |
|  |  |  | no binding (tested: 100 ng) | no binding (tested: 100 ng) | glutathione-S-transferase (GST)/GADD45 fusion protein (other, GADD45 insert was amplified from pHul45B2 and cloned XhoI/NotI into pGEX4T; also called GST-tagged GADD45; not shown: Glutathione-S-transferase encoded by the pGEX4T vector (Pharmacia)) TLEEFSAGEQKTERMDKVGDALEEVLSKALSQRTITVGVYEAAKLLNVDPDNVVLCLLAADEDDDRDVALQIHFTLIQAFCCENDINILRVSNPGRLAELLLLETDAGPAASEGAEQPPDLHCVLVTNPHSSQWKDPALSQLICFCRESRYMDQWVPVINLPER |
